Test results as given in patent US20220145281A1, “NEW VACCINAL STRATEGY TO PREVENT OR TREAT RHUMATOID ARTHRITIS” (INSERM (Institut National de la Santé et de la Recherche …, priority 2019, published 2022).

How the values were obtained:
HLA-DRB1*01:01 = molecular target: T1, HLA-DRB1*01:01 (Homo sapiens, UniProt P01903+P01911, A100R/D57E/F55L/F60I/F76Y/I96L/L162R/M171V/P40L/Q125E/R42F/V115G/Y59C); experiment: HLA-DR peptide-binding assay (ELISA); details: positive binding = OD equal to the OD for the HA peptide
T1 construct: Purification of HLA-DRB1 molecules from lymphoblastoid cell lines; Total protein extracts were immunoprecipitated by anti-HLA-DR LB3.1 antibody; endogenous in cells; host or cells: JESTHOM lymphoblastoid cell line, HLA homozygous

HLA-DRB1*04:01 = molecular target: T2, HLA-DRB1*04:01 (Homo sapiens, UniProt P01903+P01911, A100K/A169T/F76Y/I96L/K127E/L162R/M171V/N62H/P40V/Q125Y/R42H/S133A/S149N/S66Y/V115G/V209L/W38E); experiment: HLA-DR peptide-binding assay (ELISA); details: positive binding = OD equal to the OD for the HA peptide
T2 construct: Purification of HLA-DRB1 molecules from lymphoblastoid cell lines; Total protein extracts were immunoprecipitated by anti-HLA-DR LB3.1 antibody; endogenous in cells; host or cells: SAVC lymphoblastoid cell line, HLA homozygous

HLA-DRB1*04:02 = HLA-DRB1*04:02 (Homo sapiens, UniProt P01903+P01911, A100E/A169T/F76Y/K127E/L162R/M171V/N62H/P40V/Q125Y/Q99D/R42H/S133A/S149N/S66Y/V209L/W38E); experiment: HLA-DR peptide-binding assay (ELISA); details: positive binding = OD equal to the OD for the HA peptide
HLA-DRB1*04:04 = HLA-DRB1*04:04 (Homo sapiens, UniProt P01903+P01911, A100R/A169T/F76Y/I96L/K127E/L162R/M171V/N62H/P40V/Q125Y/R42H/S133A/S149N/S66Y/V209L/W38E); experiment: HLA-DR peptide-binding assay (ELISA); details: positive binding = OD equal to the OD for the HA peptide
HLA-DRB1*07:01 = HLA-DRB1*07:01 (Homo sapiens, UniProt P01903+P01911, A100R/A102G/A103Q/D57E/D86V/E43K/F76Y/K127E/L162R/M171V/P40G/Q125H/Q99D/R33Q/R42Y/R54Q/S133A/S66F/T210M/V115G/Y107V/Y59L/Y89S); experiment: HLA-DR peptide-binding assay (ELISA); details: positive binding = OD equal to the OD for the HA peptide
[1] = system: 5 purified HLA-DR molecules; experiment: HLA-DR peptide-binding assay, panel of alleles and likelihood calculation per genotype; parameters: species or system human
[2] = system: Mononuclear cells (PBLs) from patients and controls; experiment: T cell proliferation assay (BRDU incorporation); assay type: cell-based, human; details: healthy controls, 11, 5 μg/ml peptide, 6 days
Procedure: T cell proliferation assay. Mononuclear cells from patients were isolated from 20 ml of heparinized blood by centrifugation through Ficoll-Histopaque (Sigma Aldrich, St. Quentin-Fallavier, France). Cells were cultured at a density of 10^6 cells/ml in RPMI 1640 with 10% self-serum in the presence of 1 μg/ml of human PAD4 or human fibrinogen or PHA (phytohemagglutinin) or 5 μg/ml of PAD4 peptide. After 6 days of culture at 37° C., proliferative response to proteins was evaluated using the colorimetric bromodeoxyuridine kit (Roche Diagnostics, Meylan, France). Positive T cell responses were defined by optical densities (OD) higher than twice the ODs for cells cultured without protein or peptide.

CD4 T cells = experiment: Flow cytometry analysis of whole blood samples stimulated with PAD4; assay type: cell-based, human; details: 10 RA patients and 7 controls
From the text: One patient with RA (2.4%) and none of the patients with psoriatic arthritis or healthy controls had proliferative response to citrullinated fibrinogen. To confirm that the proliferative response observed in PBLs cultured with PAD4 was due to T cells, we ran flow cytometry analysis in an extra 10 RA patients and 7 controls.

[3] = molecular target: T3, HLA-DR molecule HLA-DRB1*04:01, purified from lymphoblastoid cell line SAVC (human); experiment: ELISA: peptide coated on plate, purified HLA-DR added
T3 construct: Immunoprecipitated from detergent cell lysate with anti-HLA-DR LB3.1 and eluted at pH 2
Procedure: (§1) HLA-DR Peptide-binding assay. ELISA plates were coated with 10 μg of PAD4 or fibrinogen peptide/well and blocked in 1% bovine serum albumin (BSA). One microgram of purified HLA-DR molecule was added to plates. After washing, bound HLA-DR was detected by biotinylated anti HLA-DR antibody B8122 (Immunotech, Marseille, France), followed by peroxidase-conjugated avidin. Peroxidase-conjugated anti-mouse IgG and peroxidase-conjugated avidin were supplied by Sigma Aldrich (St. Quentin-Fallavier, France). Optical density was read at 405 nm. The binding of each of the purified HLA-DR alleles was assayed on ELISA plates coated with peptides from PAD4 or Fibrinogen (each in duplicate wells) and, as controls, 2 wells coated with a classical positive binder, influenza hemagglutinin (HA) peptide ([…]). Positive binding was defined as an OD value equal to the OD for the HA peptide.

[4] = molecular target: T4, HLA-DR molecule HLA-DRB1*01:01, purified from lymphoblastoid cell line JESTHOM (human); experiment: as above
T4 construct: Immunoprecipitated from detergent cell lysate with anti-HLA-DR LB3.1 and eluted at pH 2
Procedure: as §1

[5] = molecular target: T5, HLA-DR molecule HLA-DRB1*04:02, purified from lymphoblastoid cell line YAR (human); experiment: as above
T5 construct: Immunoprecipitated from detergent cell lysate with anti-HLA-DR LB3.1 and eluted at pH 2
Procedure: as §1

[6] = molecular target: T6, HLA-DR molecule HLA-DRB1*04:04, purified from lymphoblastoid cell line PEYSSON (human); experiment: as above
T6 construct: Immunoprecipitated from detergent cell lysate with anti-HLA-DR LB3.1 and eluted at pH 2
Procedure: as §1

[7] = molecular target: T7, HLA-DR molecule HLA-DRB1*07:01, purified from lymphoblastoid cell line MOU (human); experiment: as above
T7 construct: Immunoprecipitated from detergent cell lysate with anti-HLA-DR LB3.1 and eluted at pH 2
Procedure: as §1

## DPGVEVTLTMKAASGSTGDQ (Synthetic peptide p8) [peptide 8, 20-mer peptide from human PAD4]
HLA-DRB1*01:01
  binding to HLA-DRB1*01:01: binds
HLA-DRB1*04:01
  binding to HLA-DRB1*04:01: binds
HLA-DRB1*04:02
  binding to HLA-DRB1*04:02: binds
HLA-DRB1*04:04
  binding to HLA-DRB1*04:04: binds
HLA-DRB1*07:01
  binding to HLA-DRB1*07:01: binds
[1]; HLA-DRB1*01:01, *04:01, *04:02, *04:04, *07:01
  binding to the five tested HLA-DRB1 alleles: bound all five tested HLA-DRB1 alleles
[2]
  subjects with T cell proliferative response to peptide (OD ratio higher than 2): 0/11 and no healthy control
[2]; listed as Peptide 8
  subjects with T cell proliferative response to peptide (OD ratio higher than 2): 0

## VRVFQATRGKLSSKCSVVLG (Synthetic Peptide 22) [20-mer peptide from human PAD4]
HLA-DRB1*04:01
  binding to HLA-DRB1*04:01: bind HLA-DRB1*04:01 only
[2]
  subjects with T cell proliferative response to peptide (OD ratio higher than 2): none of 11

B1: peptidyl arginine deiminase 4 (protein, listed as Homo sapiens)
chain: MAQGTLIRVTPEQPTHAVCVLGTLTQLDICSSAPEDCTSFSINASPGVVVDIAHSPPAKKKSTGSSTWPLDPGVEVTLTMKAASGSTGDQKVQISYYGPKTPPVKALLYLTAVEISLCADITRTGKVKPTRAVKDQRTWTWGPCGQGAILLVNCDRDNLESSAMDCEDDEVLDSEDLQDMSLMTLSTKTPKDFFTNHTLVLHVARSEMDKVRVFQATRGKLSSKCSVVLGPKWPSHYLMVPGGKHNMDFYVEALAFPDTDFPGLITLTISLLDTSNLELPEAVVFQDSVVFRVAPWIMTPNTQPPQEVYACSIFENEDFLKSVTTLAMKAKCKLTICPEEENMDDQWMQDEMEIGYIQAPHKTLPVVFDSPRNRGLKEFPIKRVMGPDFGYVTRGPQTGGISGLDSFGNLEVSPPVTVRGKEYPLGRILFGDSCYPSNDSRQMHQALQDFLSAQQVQAPVKLYSDWLSVGHVDEFLSFVPAPDRKGFRLLLASPRSCYKLFQEQQNEGHGEALLFEGIKKKKQQKIKNILSNKTLREHNSFVERCIDWNRELLKRELGLAESDIIDIPQLFKLKEFSKAEAFFPNMVNMLVLGKHLGIPKPFGPVINGRCCLEEKVCSLLEPLGLQCTFINDFFTYHIRHGEVHCGTNVRRKPFSFKWWNMVP
notes: Human PAD4 protein produced in baculovirus expression system
[1]; genotype DRB1*01:01/01:01
  Likelihood to bind at least one peptide from: 0.061
[1]; genotype DRB1*01:01/04:01
  Likelihood to bind at least one peptide from: 0.165
[1]; genotype DRB1*01:01/04:04
  Likelihood to bind at least one peptide from: 0.120
[1]; genotype DRB1*01:01/07
  Likelihood to bind at least one peptide from: 0.076
[1]; genotype DRB1*04:01/04:01
  Likelihood to bind at least one peptide from: 0.258
[1]; genotype DRB1*04:01/04:04
  Likelihood to bind at least one peptide from: 0.218
[1]; genotype DRB1*04:01/07
  Likelihood to bind at least one peptide from: 0.178
[1]; genotype DRB1*04:02/07
  Likelihood to bind at least one peptide from: 0.090
[1]; genotype DRB1*04:04/04:02
  Likelihood to bind at least one peptide from: 0.134
[1]; genotype DRB1*04:04/04:04
  Likelihood to bind at least one peptide from: 0.176
[1]; genotype DRB1*04:04/07
  Likelihood to bind at least one peptide from: 0.134
[1]; genotype DRB1*07/07
  Likelihood to bind at least one peptide from: 0.090
CD4 T cells
  expression of CD154 (T cell early activation marker) on CD4 T cells: increased expression of CD154
  production of TNF alpha by CD4 T cells: increased production of TNF alpha

B2: peptide 22 from PAD4 (VRVFQATRGKLSSKCSVVLG) (peptide)
peptide: VRVFQATRGKLSSKCSVVLG
notes: Synthetic 20-mer, coated on the ELISA plate (10 ug/well); also called p22; peptide p22
[3]
  binding result: binds

B3: peptide 8 from PAD4 (DPGVEVTLTMKAASGSTGDQ) (peptide)
peptide: DPGVEVTLTMKAASGSTGDQ
notes: Synthetic 20-mer, coated on the ELISA plate (10 ug/well); also called p8; peptide p8
[4]
  binding result: binds
[3]
  binding result: binds
[5]
  binding result: binds
[6]
  binding result: binds
[7]
  binding result: binds
